Non-standard residues stand in square brackets, D forms with d. Primed or numbered codes have the meaning given here. No end group written: not given here. PEG12″ = PEG12 group on the N-terminal Lys
These binders were tested against ProLink tagged human APJ (Apelin Receptor) in CHO-K1 AGTRL1 β-Arrestin cells (human, UniProt P35414 1-380) (assay: cell-based or functional assay).

| Binder | β-Arrestin recruitment, Percent of Apelin-13 Control Activity (10 µM peptide) |
| --- | --- |
| RRMMGMVEQSLCG[dA] [SEQ ID NO 38] | 0 % of Apelin-13 control |
| MMGMVF [SEQ ID NO 45] | 0 % of Apelin-13 control |
| RRLLGLVEQSLCG[dA] [SEQ ID NO 40] | 0 % of Apelin-13 control |
| RRMMGMVFQCLEG[dA] [SEQ ID NO 14] | 0 % of Apelin-13 control |
| KRRMMGMVFQSLCGA ((PEG12) on the N-terminal K (position 1); (dA) D-alanine at position 15) [SEQ ID NO 36] | 63 % of Apelin-13 control |
| MMGMVFQSL [SEQ ID NO 48] | 1 % of Apelin-13 control |
| MMGMV [SEQ ID NO 44] | 0 % of Apelin-13 control |
| MMGMVFQSLCG[dA] [SEQ ID NO 49] | 1 % of Apelin-13 control |
| RXMMGMVFQSLCGA ((AIB) aminoisobutyric acid at position 2; (dA) D-alanine at position 14) [SEQ ID NO 34] | 8 % of Apelin-13 control |
| RRMMGMVYQCLCG[dA] (cysteine pairing not given here) [SEQ ID NO 10] | 3 % of Apelin-13 control |
| RXLLGLVFQSLCGA ((AIB) aminoisobutyric acid at position 2; (dA) D-alanine at position 14) [SEQ ID NO 35] | 17 % of Apelin-13 control |
| RRMMGMVAQCLCG[dA] (cysteine pairing not given here) [SEQ ID NO 11] | 0 % of Apelin-13 control |
| RRMMGMVFQELCG[dA] [SEQ ID NO 13] | 1 % of Apelin-13 control |
| RRLLGLVFQSLEG[dA] [SEQ ID NO 41] | 0 % of Apelin-13 control |
| RRMMGMVFQCLCG[dA] (cysteine pairing not given here) [SEQ ID NO 8] | 17 % of Apelin-13 control |
| [PEG12″]KRRIIGIVFQCLCG[dA] (cysteine pairing not given here) [SEQ ID NO 42] | 8 % of Apelin-13 control |
| RRMMGMVFQSLCG[dA] [SEQ ID NO 15] | 40 % of Apelin-13 control |
| RRMMGMVEQCLCG[dA] (cysteine pairing not given here) [SEQ ID NO 12] | -1 % of Apelin-13 control |
| MMGMVFQS [SEQ ID NO 47] | 1 % of Apelin-13 control |
| MRRMMGMVFQCLCGL [SEQ ID NO 7] | 91 % of Apelin-13 control |
| MMGMVFQ [SEQ ID NO 46] | 0 % of Apelin-13 control |
| RRMMGMVFQSLEG[dA] [SEQ ID NO 39] | 0 % of Apelin-13 control |
| KRRLLGLVFQSLCGA ((PEG12) on the N-terminal K (position 1); (dA) D-alanine at position 15) [SEQ ID NO 37] | 12 % of Apelin-13 control |

These binders were tested against T1, Apelin Receptor (APJ) stably overexpressed in CHO-K1 AGTRL1 Gi cells (human, UniProt P35414 1-380) (assay: cell-based or functional assay).
T1 sequence (looked up): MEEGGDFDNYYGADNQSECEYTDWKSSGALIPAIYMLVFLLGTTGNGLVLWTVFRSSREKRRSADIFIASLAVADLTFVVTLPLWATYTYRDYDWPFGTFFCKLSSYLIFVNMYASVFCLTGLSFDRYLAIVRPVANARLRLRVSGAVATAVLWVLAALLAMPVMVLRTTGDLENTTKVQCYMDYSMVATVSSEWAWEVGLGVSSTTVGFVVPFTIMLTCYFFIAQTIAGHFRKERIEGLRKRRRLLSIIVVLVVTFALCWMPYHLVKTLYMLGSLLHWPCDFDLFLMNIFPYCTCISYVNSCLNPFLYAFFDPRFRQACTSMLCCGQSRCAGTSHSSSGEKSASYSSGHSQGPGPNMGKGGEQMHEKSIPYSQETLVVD

| Binder | cAMP levels, Percent of Pyr-Apelin-13 Control Activity (10 µM peptide, 10 µM forskolin) |
| --- | --- |
| RRMMGMVEQSLCG[dA] [SEQ ID NO 38] | 12 % of Pyr-Apelin-13 control |
| MMGMVF [SEQ ID NO 45] | 10 % of Pyr-Apelin-13 control |
| RRLLGLVEQSLCG[dA] [SEQ ID NO 40] | 19 % of Pyr-Apelin-13 control |
| RRMMGMVFQCLEG[dA] [SEQ ID NO 14] | 39 % of Pyr-Apelin-13 control |
| KRRMMGMVFQSLCGA ((PEG12) on the N-terminal K (position 1); (dA) D-alanine at position 15) [SEQ ID NO 36] | 101 % of Pyr-Apelin-13 control |
| MMGMVFQSL [SEQ ID NO 48] | 15 % of Pyr-Apelin-13 control |
| MMGMV [SEQ ID NO 44] | 5 % of Pyr-Apelin-13 control |
| MMGMVFQSLCG[dA] [SEQ ID NO 49] | 14 % of Pyr-Apelin-13 control |
| RXMMGMVFQSLCGA ((AIB) aminoisobutyric acid at position 2; (dA) D-alanine at position 14) [SEQ ID NO 34] | 61 % of Pyr-Apelin-13 control |
| RRMMGMVYQCLCG[dA] (cysteine pairing not given here) [SEQ ID NO 10] | 70 % of Pyr-Apelin-13 control |
| RXLLGLVFQSLCGA ((AIB) aminoisobutyric acid at position 2; (dA) D-alanine at position 14) [SEQ ID NO 35] | 8 % of Pyr-Apelin-13 control |
| RRMMGMVAQCLCG[dA] (cysteine pairing not given here) [SEQ ID NO 11] | 49 % of Pyr-Apelin-13 control |
| RRMMGMVFQELCG[dA] [SEQ ID NO 13] | 49 % of Pyr-Apelin-13 control |
| RRLLGLVFQSLEG[dA] [SEQ ID NO 41] | 15 % of Pyr-Apelin-13 control |
| RRMMGMVFQCLCG[dA] (cysteine pairing not given here) [SEQ ID NO 8] | 64 % of Pyr-Apelin-13 control |
| [PEG12″]KRRIIGIVFQCLCG[dA] (cysteine pairing not given here) [SEQ ID NO 42] | 33 % of Pyr-Apelin-13 control |
| RRMMGMVFQSLCG[dA] [SEQ ID NO 15] | 105 % of Pyr-Apelin-13 control |
| RRMMGMVEQCLCG[dA] (cysteine pairing not given here) [SEQ ID NO 12] | 24 % of Pyr-Apelin-13 control |
| MMGMVFQS [SEQ ID NO 47] | -6 % of Pyr-Apelin-13 control |
| MRRMMGMVFQCLCGL [SEQ ID NO 7] | 109 % of Pyr-Apelin-13 control |
| MMGMVFQ [SEQ ID NO 46] | 11 % of Pyr-Apelin-13 control |
| RRMMGMVFQSLEG[dA] [SEQ ID NO 39] | -13 % of Pyr-Apelin-13 control |
| KRRLLGLVFQSLCGA ((PEG12) on the N-terminal K (position 1); (dA) D-alanine at position 15) [SEQ ID NO 37] | 53 % of Pyr-Apelin-13 control |

Biological target: T1, Apelin Receptor (APJ) stably …
Test: cell-based or functional assay
Remark: another data set of the same source

| Binder | IC50, inhibition of forskolin-stimulated cAMP accumulation [nM] |
| --- | --- |
| KRRMMGMVFQSLCGA ((PEG12) on the N-terminal K (position 1); (dA) D-alanine at position 15) [SEQ ID NO 36] | 1600 |
| [PEG12″]KRRIIGIVFQCLCG[dA] (cysteine pairing not given here) [SEQ ID NO 42] | 4380 |
| RRMMGMVFQSLCG[dA] [SEQ ID NO 15] | 4490 |
| RRIIGIVFQSLCG[dA] [SEQ ID NO 43] | 2070 |
| MRRMMGMVFQCLCGL [SEQ ID NO 7] | 1240 |
| KRRLLGLVFQSLCGA ((PEG12) on the N-terminal K (position 1); (dA) D-alanine at position 15) [SEQ ID NO 37] | 2500 |
